Assay: label from the status in PepcDB records
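Note: failed if final PepcDB status was selected cloned or expressed and not failed if soluble or beyond.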

ELLKSGKAKDRFEGEENAPVTIVEYASLTCVHCAHFYNDVLPQIRKKYIKTGKVKLIFRDFAFDSRATAGFMLARCAPEDRYFPLIEVLFQKQSEWVWARDAVTPLKKIGLMAGFTDESFNACLKNQSILDEVNASFERGKELGVNATPTFFINGNKYEGAMSVEAFFSVIDSFLKN
protein production: not failed

MSLKYIIGMDVGTTATKGVLYDINGKAVASVSKGYPLIQTKVGQAEEDPKLIFDAVQEIIFDLTQKIDGKIAAISWSSQMHSLIGLGSDDELLTNSITWADNCAKSIVQDAKNRGFAQQIYRKTGMPMHPMAPIYKLLWLKNKKTEVFSQAQKWIGIKEYIIFRLTGKLVTDTTMAAGTGILNLKTLTWDQELLDILKIKKEQLPKIAQPTKVIFPIKTEYVKKLGIDSDTKIILGASDGYLSTIGVNAIDSDHCALNVGTSGAIRTIVDQPKIDPSASYFCYPADKTHYLLGGPVNNGGIVFNWARQTLFDADETPQDFLDVAQTAPAGSRNLIFLPYLGGERAPIWDANARGSFVGLTRMHQKPEMARAVIEGIIFNLYDAASNLIKNTKKPVAINATGGFLKSDFVRQLCANIFNVPIVTMKEQQSGTLAAMFLARQALGLNQDLSEIGQFAQADKVYFPNPKEAATYQKLFPLYCEIRNALAASYGKFSNINEGHHHHHH
protein production: not failed

MGSSHHHHHHSSGLVPRGSHMLLREVTREERKNFYTNEWKVKDIPDFIVKTLELREFGFDHSGEGPSDRKNQYTDIRDLEDYIRATAPYAVYSSVALYEKPQEMEGWLGTELVFDIDAKDLPLRRCEHEPGTVCPICLNDAKEIVRDTVIILREELGFNDIHIIYSGRGYHIRVLDEWALKLDSKSRERILSFVSASEIEDVEEFRKLLLNKRGWFVLNHGYPRAFRLRFGYFILRIKLPHLINAGIRKSIAKSILKSKEEIYEEFVRKAILAAFPQGVGIESLAKLFALSTRFSKSYFDGRVTVDLKRILRLPSTLHSKVGLIAKYVGTNERDVMRFNPFKHAVPKFRKEEVKVEYKKFLESLGT
protein production: not failed

MKLITKEVRIGIAGVAALCLLVFGINYLKGINMFKPASYFYVKFHNVNGLAQSSPVFADGVRVGIVRDIAYDYNQPENVIVEVEVDTDLRIPKGSSAELVPELMGGVRMNILLANNPRERYTVGDTIPGTLNNGMMEKVAAMMPAVEKMLPKLDSILTSLNTIMADQSIPATLHSIEKTTANLEVTSRQLKVLMNNDIPQLTGKLNTIGDNFVVISGNLKEIDYAATFKKIDTTLSNVKMLTEKLNSKDNTVGLLLNDPQLYNNLNQTTINAANLLEDLKEHPKRYVHFSLFGKKDKLEHHHHHH
protein production: failed

METKQDNLIYVWDAYCGWCYGFSESIKGFYKNHTEVPLTVLCGGLFLDNLPMKNFSYIEEGNKRINQLTGAEFGPSYQKLVEEGTFKMNSKDAAIGFSALRSLAPDRLLEFTSAMQKAFYYEGQSLSDPETYRKIAIEHGLDPEQVLERLNAQETIIDVQNDFNKVRQLGVNSYPSLLLQKDNQIIPIGGGVMTPDKIEARFKNLY
protein production: failed

MASHELDYRILGESMQTVEIELDPGETVIAEAGAMNYMTGDIRFTARMGDGSDGSLLGKLWSAGKRKLGGESVFMTHFTNEGQGKQHVAFAAPYPGSVVAVDLDDVGGRLFCQKDSFLCAAYGTRVGIAFTKRLGAGFFGGEGFILQKLEGDGLVFVHAGGTLIRRQLNGETLRVDTGCLVAFTDGIDYDVQLAGGLKSMLFGGEGLLLTTLKGSGTVWLQSLPFSRLAGRIYDATFRAREEVRTNNG
protein production: not failed

MSCHLSYLEGTMEFMISGRNLTVSDRFREYAGEKISKIESLGDKVQRVDAKVSKETNPRQTPGELTVEVTVLGRGPVIRAEATAADKFAAFDLAYNKLLERLRRAKDRKKVHHGRHTPKAVREATATLEPASASEPLYVEASNHQESAPPVDERSPYDIENDIPAGDSPVLIRRKVFPAASLTLDDAVDNMELVGHNFYLFLDKETNAPSVVYRRSGWTYGVITLDSTCEPGEEAVEEKIHAYRSDDQAATAK
protein production: failed

PHSMEPQVTLNVTFKNEIQSFLVSDPENTTWADIEAMVKVSFDLNTIQIKYLDEENEEVSINSQGEYEEALKMAVKQGNQLQMQVHEG
protein production: not failed

MCRGPLGSYESLTRPSFAFIVISPSATLLTHAPGSQEPHVSRHNRRRSTLHKRATVFGGGTVAVAAVVATVNIASADQVSPTPRTASKADHAVFVQGNELAGNTIHVFRRGDDGKLTAAGKYATGGKGGDQVDAPTDSLASQGSLVYDRRSGRLLALNAGSGTLTSYAVHGQKLTDRQTVPTGGDFPVGIAVSGDLAYVMNAGGAGSVQGFRITTMGLKPLSGSLRTLGLKNEKVPLFSSSPGQAAFTPDGRNLVVTTKSANTVEVFPIGRDGRPAHKPVVNKSAGMVPFAIAFDKTGRMLVAEAAESTVSTYKVRRNGELQVLQKPLPNGQDTLCWLERAGDFFYGGNTGNSTVSGYRMDARGRLALTNEAGIAAAPSAKSQGVIDIAVAADKFVYVQNATSGTVDGFRVGRTGALTKVTTVTDLPAFAESGMEGIAAV
protein production: failed

MNELLLITFSPLVAGVLAWLVRIRGVRESLGILGAIVPLAFLIKLYPSLDHPIRATISLGGFELGFSMSHLNWVFSMIAAVVGLSAVFGMASTAKDSYEWLFSLMSLTGALGIFMAQDLVTFFIFWEVMTFSSFMMVLKFNRAASLKYLILSIIGAYSMLVAIGIIYAKTGTFTFADISAFFRKEAMLAMLGGKSTFSRFDMALIYLLFLMAFGVKAGMFPLHVWAPDAYSETDQSYTAIFSGVLSKTGVYGFILLYVLMYGKLLIDLGQFKGTPLFGYIIAFLGGLTIIIGGVLAALQEDIRKLFAYSSISQVGYILVGLGIGTSLGIEAAIYHAISHALFKGLFFLVVATIIYRTGKTEFKDFGGLAEKMPFTFAMAFIAILSLAGIPPLVGFASKWLIFEAVISQKLPILGGMLFFGSAIGFVYLIRFTYAVWFGQRPSDIEDTKDAPLPLAIGMGILGTLNVVFGVAPGLVAKELNAIFGNPVIGGNIWELDLGFGRYNALLVAIWLVIGVLIAAILYFLGASTRKVPVTDTYQSGNPVTMEYNLTIRRNFFLPLKETMAFWLRISFDKLYKDTWKAIEDFAETARNYIYNGNVQAYAWYLAIILLILAAMGV
protein production: failed

MTTKPRLCTALLTLAIAVSASAPVLAQSMAGGSAKNRYANQTKLDPYPPEGGWQGLANLLEAAKPGVDTRLDPTPSQITDRIEELLNRGANEEALSLIERREAAIKGQRGADVQLMFQHARALAALGRADEAIAVYSDMTTQFPELPEPWNNLAALYASRGELERAQDSLQMALRANPDYAAARANLGDIQLMMALRTYRQEEARGVPGMKARVEEIESLLKDKQPK
protein production: failed

MKISEVLVKVGDGVHTLLLDRPIVRDGRKFDAPLLWMVVLMTAFGLLMIYSASVYLASKEGGDQFFYLTRQAGFVVAGLIASGFLWFLCRMRTWRRLVPWIFALSGLLLVAVLIAGREINGATRWIPLGPLNFQPTELFKLAVILYLASLFTRREEVLRSMESLGWQSIWRGTANLIMSATNPQARRETLEMYGRFRAIILPIMLVAFGLVLIMVQPDFGSFVVITVITVGMLFLAGLPWKYFFVLVGSVLGGMVLMITAAPYRVQRVVAFLDPWKDPQGAGYQLTHSLMAIGRGEWFGMGLGASLSKRGFLPEAHTDFIFAIIAEEFGFFGMCVLIFCYGWLVVRAFSIGKQSRDLGLTFNAYIASGIGIWIGIQSFFNIGVNIGALPTKGLTLPLMSYGGSSVFFMLISMMLLLRIDYENRQKMRGYRVE
protein production: failed

MGREFIPLFEDWAATYDQTVQGLDIQYKEAFRGYDHILDAIVRKSGTHVLEFGPGTGNLTAKLLDAGKTVFGIEPSPAMRKLASDKLSGRTEIVDGDFLTFPEPPFQADTIVSSYAFHHLTDEEKRAAIKQYGKYLHLHDKIVFADTVFENAQAYQQAIDKARSQGFYQLANDLETEHYPTLDALKEMFTAEGFAVRFTQQNDFVWIMEAIKRLEHHHHHH
protein production: failed

MAIARHRSFSRAAIELGVSASALSHALKGLETRLGVRLLNRTTKSVTPTAAGEELVQSVLQPFDTIEGALESLNRYRNTPTGRIRINAAVEAANLLLAPVMPAFMDRYPDIEIDIVASNRMVDVTDAGFDAGIRYGGTVPEDMVARRLSADIRWVIAASPDYLERYGTPEHPDDLLHHRCISNRLGDDRVYRWELARDGETYQMTVPGSVTVNHAETGLVAVLGGAGLMYFPEPLVAPYVKDGRLRLVLTEWSPLEEGFHIYYSSRRQLPTGLRLLIEFIQEARPLGL
protein production: failed

MALELSRLPELLSRIDGYKGQPVTRLAVMLNLLVFIRSSELRYARWSEIDIDNSMWTIPAEREPLPGVKFSHRGSKMRTPHLVPLSKQVVAILAELQTWAGENGLIFTGAHDPRKPISENTVNKALRVMGYDTTQEVCGHGFRAMACSALIESGLWSRDAVERQMSHQERNGVRAAYIHKAEHLEERRLMLQWWADFLDANREKGISPFEYAKINNPLKLEHHHHHH
protein production: not failed

MVPLPRSMRVLHWLTVLCLVMAASLILLRAELEGRALRQWLLEGHRHFGLMVLLLFVLRVSLRLRLRALPPGPPSPLIMRLAAGGTHVAMYALMLALPLIGWSLSNAYGKTVYLFGITLPNLVAADEDLADTLGTWHLNAAWALLALVAVHIVAALVHHLVLRDGLLHRVLPGKHHR
protein production: failed

MKSHAEVVKTRHHEYSLVFPVIALVVLYIWGNSQDFIAILGINAVALAGILFSAFSVVRHADVLAHRLGEPYGSLILSLSVVILEVSLISALMATGDAGPDLMRDTLYSIIVIVTGGLVGFALLLGGRKFATQYVNLSGIKQYLMAIFPLAVIVLVFPSALPDGNFSVTQSLIVAAISAAMYGVFLLIQTRTHQSLFVYEHEDEGDGDDPHHGKPSAHSSLWHTGWLLVHLIAVIAVTKTNSMPLETLLTEMNAPTQFTGFLVALLILSPEGLGAIRAVLKNQVQRAMNLFFGSVLATISLTVPTVTIIAMITGRTLNFGLDMPHIVVMLSVLVLCHITFSTGRTNVLSGSAHLALFAAYLITITL
protein production: failed

MKVASGSTATAAAGPSCALKAGKTASGAGEVVRCLSEQSVAISRCAGGAGARLPALLDEQQVNVLLYDMNGCYSRLKELVPTLPQNRKVSKVEILQHVIDYIRDLQLELNSESEVGTPGGRGLPVRAPLSTLNGEISALTAEAACVPADDRILCR
protein production: failed

MLPPPPSASPAARENTDPGGHRADSGVSYSKIDPVGTFVRLLGLIAPAWQAVLGATLLGSGTIASNIGLMATAAFLIASAALHPPAGKLMLAIVGVRFFGITRAVCRYLERYVNHSITLGILGRLRVAFYRTLEPLIPAGLQGHHSGDLLSRAVADVATLENFYLRVLNPPLVALPVAAGVFLFLAHFGRTLALAWMGAFLAAGVIFPVGVTIVGRGVMRRQGEARAALNTALVDTVQGLADILVFDHGRQQQEYIATLDRQYLHLQGRKAGLNGLANALTSLASNLALWAVLVLAIPLVNRGQIDGVYLAMLALTAAAALEAAKPLPMLFPHLEGSLAAARRIFALSDTRPAGDPAGPVPHPRDFSLRVQGLRFRYGPGEPPALDGIDFDVPSGARIAIVGPSGAGKSTLVNLLLRFWDYEEGAILLGGYDLKAYPPEELQRFIGVVAQPTHLFHATIAENLLLARPDATREEMERAAREARLHEFIQVLPRGYDTLIGEEGFKLSGGQRQRLAIARALLQNAPILILDEATTGLDAVTEREVMDSIRHLMEGRTTLVITHRLVGLEDMDKILVLDRGRLVQQGRHAELLRQEGLYRHLWQLQQEALP
protein production: failed

MAPCLENVACVNLSAMPPAPPSPQPVSHKQAATLCRQGRTCALKSGSNESGGSVTSTYTSYRLISQDIGKSLERVSKQPDVARETEYYREKIGSVKSIDDFMADTRLYNYALKAHGLEDMAYAKAFIRKVLTEGASDKNAFANKLSDNRYAELAKSLDFAGLGAAATATEAAKSGVIGNYARQTLEQEAGDDNNGVRLALYFERKAPTIKSGLDFLADDALAQVFRTTFNLPDAFAAADVDKQAALIEKSINIKDLQDPEKVGKLLERFTIMWEMQNPSTTYDPLAVFGSSSGYGISPDLLISINSLKLGGKLEHHHHHH
protein production: not failed
